Source: US10584243B2, “Antithrombotic compounds, methods and uses thereof” (The University of British Columbia, priority 2014, dated 2020)

What was measured:
[1] = test system: platelets in human platelet-rich plasma; experiment: Platelet activation by flow cytometry (CD62P); assay type: cell-based; details: highest dose
Experimental: Blood from healthy consented donors was either collected into 3.8% sodium citrate tube with a blood/anticoagulant ratio of 9:1 or serum tube at Centre for Blood Research, University of British Columbia. The protocol was approved by the University of British Columbia clinical ethical committee and written consent was obtained from each individual donor. Platelet-rich plasma (PRP) was prepared by centrifuging citrated whole blood samples at 150×g for 10 min in an Allegra X-22R™ Centrifuge (Beckman Coulter™, Canada). Serum was prepared by centrifuging the blood collected in serum tube at 1200×g for 30 min one hour after blood collection.
The level of platelet activation after exposure to polyP inhibitors was quantified by flow cytometry. Ninety microliters of platelet rich plasma (PRP) was incubated at 37° C. with 10 μL of either 10 mg/mL or 20 mg/mL of UHRA, protamine or PEI stock solution (final polymer concentration 1 mg/mL and 2 mg/mL respectively) in PBS. […] The level of platelet activation was analyzed in a BD FACSCanto II flow cytometer (Becton Dickinson™) by gating platelets specific events based on their forward scattering profile (size of individual platelet). Activation of platelets was expressed as the percentage of platelet activation marker CD62-PE fluorescence detected in the 10,000 total events counted. […]

[2] = mice; intravenous injection; for UHRAs maximum injected dose, maximum tolerated dose not reached; cited from earlier work
human fibrinogen = molecular target: T1, human fibrinogen (Homo sapiens, UniProt P02671+P02675+P02679); experiment: Fibrin clot turbidity and scanning electron microscopy; details: fibrin polymerization assay
T1 sequence (P02671 20-644 isoform P02671-2 limits assumed): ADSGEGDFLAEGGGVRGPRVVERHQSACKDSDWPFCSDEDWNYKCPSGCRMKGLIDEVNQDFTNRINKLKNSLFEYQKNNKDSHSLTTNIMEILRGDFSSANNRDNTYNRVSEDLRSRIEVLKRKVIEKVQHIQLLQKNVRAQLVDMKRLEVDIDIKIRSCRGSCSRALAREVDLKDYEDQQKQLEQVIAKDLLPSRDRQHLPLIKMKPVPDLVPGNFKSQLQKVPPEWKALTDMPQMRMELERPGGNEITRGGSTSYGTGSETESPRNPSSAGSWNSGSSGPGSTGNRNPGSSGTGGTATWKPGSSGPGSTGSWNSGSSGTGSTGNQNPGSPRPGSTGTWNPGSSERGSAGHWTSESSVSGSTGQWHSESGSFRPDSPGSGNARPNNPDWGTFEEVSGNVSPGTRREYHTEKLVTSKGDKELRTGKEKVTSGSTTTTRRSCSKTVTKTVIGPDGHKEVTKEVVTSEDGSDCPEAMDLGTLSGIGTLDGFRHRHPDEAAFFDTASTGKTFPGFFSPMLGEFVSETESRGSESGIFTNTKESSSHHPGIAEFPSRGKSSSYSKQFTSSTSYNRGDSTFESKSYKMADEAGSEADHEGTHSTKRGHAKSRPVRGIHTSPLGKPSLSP
T1 sequence (P02675 45-491 limits assumed): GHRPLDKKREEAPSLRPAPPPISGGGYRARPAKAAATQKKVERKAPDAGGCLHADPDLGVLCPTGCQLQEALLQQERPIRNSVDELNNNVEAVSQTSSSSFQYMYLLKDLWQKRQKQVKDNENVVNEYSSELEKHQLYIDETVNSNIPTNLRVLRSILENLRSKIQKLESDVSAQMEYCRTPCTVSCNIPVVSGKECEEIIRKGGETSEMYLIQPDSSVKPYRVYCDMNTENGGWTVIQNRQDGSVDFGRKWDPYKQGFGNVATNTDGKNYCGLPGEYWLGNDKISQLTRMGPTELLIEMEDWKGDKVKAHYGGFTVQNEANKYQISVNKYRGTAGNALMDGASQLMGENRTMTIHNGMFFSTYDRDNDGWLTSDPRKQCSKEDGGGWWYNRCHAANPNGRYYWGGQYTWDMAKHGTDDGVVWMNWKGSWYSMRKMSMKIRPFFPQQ
T1 sequence (P02679 27-437 isoform P02679-2 limits assumed): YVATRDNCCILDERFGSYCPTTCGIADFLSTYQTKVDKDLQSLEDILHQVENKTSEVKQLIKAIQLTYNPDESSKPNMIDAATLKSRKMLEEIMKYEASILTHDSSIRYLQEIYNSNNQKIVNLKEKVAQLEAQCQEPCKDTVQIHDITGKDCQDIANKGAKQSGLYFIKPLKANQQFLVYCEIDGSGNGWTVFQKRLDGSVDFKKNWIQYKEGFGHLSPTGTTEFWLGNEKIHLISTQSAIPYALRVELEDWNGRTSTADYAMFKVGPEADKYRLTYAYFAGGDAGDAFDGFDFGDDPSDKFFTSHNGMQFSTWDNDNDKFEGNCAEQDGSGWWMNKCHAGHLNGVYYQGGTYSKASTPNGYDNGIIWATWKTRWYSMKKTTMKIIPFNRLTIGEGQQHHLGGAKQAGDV
Experimental: The morphology of clots formed in presence of UHRA and protamine was determined by scanning electron microscopy (SEM) analysis. All samples for SEM were randomly coded and blinded to the individual performing imaging and analysis to avoid bias. Fibrin clots were formed in sterile round-bottomed 5 mL polypropylene tubes (BD Falcon) by mixing purified human fibrinogen (200 μL, 3 mg/mL) in 20 mM HEPES (pH 7.4 and 150 mM NaCl) with 2.5 NIHU/mL thrombin and 3 mM CaCl2 and UHRA or protamine (in HEPES buffer) (0-500 μg/mL). All concentrations are final. Control clot was prepared in the absence of UHRA or protamine. After incubating the solution for 1 hour at 37° C., clots were immediately fixed using karnovsky fixative (2.5% glutaraldehyde and 4% formaldehyde) and repeatedly washed with 0.1 M sodium cacodylate buffer (pH=7.4) followed by post-fixation with 1% v/v osmium tetroxide. The samples were washed three times with distilled water and then dehydrated with gradient ethanol series (20-95% v/v). […] Fiber diameters of all clots were measured with image analysis software package ImageJ™ (National Institutes of Health, USA). Fiber diameter (n=30) from 8 separate areas of each clot was measured and used for calculating the average fiber size formed.

protamine sulfate
platelet activation (CD62P expression) [1]: about 30% | dose tolerated (up to) [2]: up to 20 mg/kg | final turbidity (A405) of fibrin clots (human fibrinogen): elevated final turbidity
